According to article PMC6065357, “Structural insights into SorCS2–Nerve Growth Factor complex formation” (Nature Communications, 2018):

B1: mouse SorCS2 mature extracellular segment (sSorCS2, residues 117-1072) (receptor)
chain: not shown
notes: SorCS2, mouse, residues 117-1072: the mature extracellular segment, without signal peptide and pro-peptide; Expressed from pUPE107.03 with a cystatin secretion signal peptide; For the unliganded crystal the protein was deglycosylated with EndoHf and treated with trypsin (limited proteolysis); also called SorCS2 ectodomain; wt sSorCS2; source: HEK293-ES (GnTI-) or HEK293-E, secreted, purified …
B2: pro-brain-derived neurotrophic factor (proBDNF, residues 19-249, furin sites changed to AA) (ligand)
chain: APMKEVNVHGQGNLAYPGVRTHGTLESVNGPRAGSRGLTTTSLADTFEHVIEELLDEDQKVRPNEENHKDADLYTSRVMLSSQVPLEPPLLFLLEEYKNYLDAANMSMRVAAHSDPARRGELSVCDSISEWVTAADKKTAVDMSGGTVTVLEKVPVSKGQLKQYFYETKCNPMGYTKEGCRGIDKRHWNSQCRTTQSYVRALTMDSKKRIGWRFIRIDTSCVCTLTIKRGR

Experiments:
[1] = biological target: the molecule itself; test: crystal structure; sSorCS2 mixed with proNGF 1:1.1, 1 mM calcium chloride; proNGF degraded to NGF in the drop; 0.225 M MES/bis-tris pH 6.6; 3.9 Å
[2] = biological target: B1; test: SPR; IBIS MX96; NGF, proNGF and proBDNF amine-coupled to a P-COOH SensEye sensor; wt and mutant sSorCS2 flowed as analyte; 25 mM HEPES pH 7.4, 150 mM NaCl, 0.005 % Tween 20; 25 °C; equilibrium binding, one site saturation model (two site saturation model for proBDNF); conditions: both partners purified

| Binder | stoichiometry N [1] | Kd [2] [nM] |
| --- | --- | --- |
| B1 | 2 |  |
| B2 |  | 69 |
